From patent US20240390512A1, “METHODS OF TREATING CHEMOTHERAPY-RESISTANT CANCER WITH AN ANTIBODY-DRUG CONJUGATE” (DAIICHI SANKYO COMPANY, LIMITED, priority 2021, published 2024)

T1: human CDH6 (Homo sapiens, UniProt P55285)
T1 construct: expressed in transfected cells; host or cells: 293α cells (HEK293 stably expressing integrin αv and β3)
T1 sequence (P55285 19-790): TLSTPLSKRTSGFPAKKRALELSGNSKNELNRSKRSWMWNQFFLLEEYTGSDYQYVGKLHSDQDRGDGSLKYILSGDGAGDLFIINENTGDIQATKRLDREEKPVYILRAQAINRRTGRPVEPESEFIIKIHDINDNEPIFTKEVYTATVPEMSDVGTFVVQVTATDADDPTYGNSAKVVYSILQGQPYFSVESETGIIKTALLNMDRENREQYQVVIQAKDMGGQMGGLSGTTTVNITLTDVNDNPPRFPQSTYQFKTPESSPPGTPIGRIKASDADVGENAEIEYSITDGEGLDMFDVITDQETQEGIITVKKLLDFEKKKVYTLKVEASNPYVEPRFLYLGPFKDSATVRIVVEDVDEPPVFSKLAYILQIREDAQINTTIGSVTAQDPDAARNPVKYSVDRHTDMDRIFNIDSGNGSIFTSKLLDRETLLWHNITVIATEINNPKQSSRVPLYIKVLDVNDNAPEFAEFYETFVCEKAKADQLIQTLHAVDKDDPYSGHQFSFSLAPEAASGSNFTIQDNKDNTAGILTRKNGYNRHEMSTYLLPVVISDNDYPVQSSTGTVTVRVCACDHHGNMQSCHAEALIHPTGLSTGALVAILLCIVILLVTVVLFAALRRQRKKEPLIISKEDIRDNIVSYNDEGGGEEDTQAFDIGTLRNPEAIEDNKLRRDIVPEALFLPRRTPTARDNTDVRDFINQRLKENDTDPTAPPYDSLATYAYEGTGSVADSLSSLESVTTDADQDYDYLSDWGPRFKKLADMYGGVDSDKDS

T2: hCDH6-transfected 293T cells (Homo sapiens, UniProt P55285)
T2 construct: expressed in transfected cells; host or cells: 293T cells (ATCC)
T2 sequence (P55285 19-790): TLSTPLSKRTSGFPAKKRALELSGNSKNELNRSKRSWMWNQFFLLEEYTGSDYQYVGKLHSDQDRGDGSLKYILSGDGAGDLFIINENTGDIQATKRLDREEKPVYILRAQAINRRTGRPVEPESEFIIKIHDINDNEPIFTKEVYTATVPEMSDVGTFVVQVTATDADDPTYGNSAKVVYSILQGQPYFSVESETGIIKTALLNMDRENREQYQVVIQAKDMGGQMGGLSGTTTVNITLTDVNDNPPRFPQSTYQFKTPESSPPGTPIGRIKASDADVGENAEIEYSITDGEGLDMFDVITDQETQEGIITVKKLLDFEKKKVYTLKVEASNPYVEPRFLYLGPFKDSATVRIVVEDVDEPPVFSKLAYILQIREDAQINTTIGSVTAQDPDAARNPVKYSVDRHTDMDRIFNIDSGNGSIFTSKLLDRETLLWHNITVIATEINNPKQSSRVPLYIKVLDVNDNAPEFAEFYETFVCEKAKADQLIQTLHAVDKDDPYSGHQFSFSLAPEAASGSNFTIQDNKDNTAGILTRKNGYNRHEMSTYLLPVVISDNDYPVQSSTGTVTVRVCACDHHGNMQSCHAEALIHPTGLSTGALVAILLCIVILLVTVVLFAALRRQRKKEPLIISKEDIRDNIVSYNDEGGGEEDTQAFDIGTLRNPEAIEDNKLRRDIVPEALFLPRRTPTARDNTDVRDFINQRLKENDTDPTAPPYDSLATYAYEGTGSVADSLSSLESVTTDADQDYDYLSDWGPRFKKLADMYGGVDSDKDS


Tests used:
[1] = biological target: T1, human CDH6; assay: Hybridoma screening by Cell-ELISA; format: binding; details: hybridoma culture supernatant; 293α cells transfected with pcDNA3.1-hCDH6
Procedure: 293α cells (a stable expression cell line derived from HEK293 cells expressing integrin αv and integrin β3) were prepared at 5×10^5 cells/mL in DMEM medium supplemented with 10% FBS. In accordance with transduction procedures for using Lipofectamine 2000 (Thermo Fisher Scientific Inc.), DNA of pcDNA3.1-hCDH6 or pcDNA3.1-cynoCDH6, or pcDNA3.1 as a negative control was introduced into the 293α cells, and the cells were dispensed in an amount of 100 μL/well onto a 96-well plate (Corning Inc.). Thereafter, the cells were cultured under conditions of 37° C. and 5% CO2 in DMEM medium supplemented with 10% FBS for 24 to 27 hours. The obtained transfected cells were used for Cell-ELISA in an adhesive state.
The culture supernatant of the 293α cells transfected with the expression vector prepared in Reference Example 1)-4-1 was removed, and the culture supernatant from each hybridoma was then added to the 293α cells transfected with pcDNA3.1-hCDH6 or pcDNA3.1-cynoCDH6, or pcDNA3.1. The cells were left standing at 4° C. for 1 hour. The cells in the wells were washed once with PBS (+) supplemented with 5% FBS, and thereafter, Anti-Rat IgG-Peroxidase antibody produced in rabbit (Sigma-Aldrich Co. LLC) that had been 500-fold diluted with PBS (+) supplemented with 5% FBS was added to the wells. The cells were left standing at 4° C. for 1 hour. The cells in the wells were washed three times with PBS (+) supplemented with 5% FBS, and thereafter, OPD coloring solution (which had been prepared by dissolving o-phenylenediamine dihydrochloride (Wako Pure Chemical Industries, Ltd.) and H2O2 in an OPD solution (0.05 M trisodium citrate, 0.1 M disodium hydrogen phosphate 12-water; pH 4.5), so that the substances became 0.4 mg/ml and 0.6% (v/v), respectively, was added in an amount of 100 μL/well to the wells. A coloring reaction was carried out with occasional stirring. Thereafter, 1 M HCl was added to the plate (100 μL/well) to terminate the coloring reaction, followed by measurement of the absorbance at 490 nm using a plate reader (ENVISION: PerkinElmer, Inc.).
The heavy chain subclass and the light chain type of the antibody were determined using a RAT MONOCLONAL ANTIBODY ISOTYPING TEST KIT (DS Pharma Biomedical Co., Ltd.).

[2] = biological target: T2, hCDH6-transfected 293T cells; assay: Binding ability of rat anti-CDH6 antibody by flow cytometry; details: antibody final concentration 10 ng/mL
Procedure: The human CDH6-binding activity of the rat anti-CDH6 antibody produced in Reference Example 1)-7 was evaluated by flow cytometry. Using Lipofectamine 2000 (Thermo Fisher Scientific Inc.), pcDNA3.1-hCDH6 produced in Reference Example 1)-1 was transiently introduced into 293T cells (ATCC). The cells were cultured overnight under conditions of 37° C. and 5% CO2, and thereafter, a cell suspension was prepared. The suspension of the transfected 293T cells was centrifuged, and the supernatant was then removed. Thereafter, the cells were suspended by the addition of each of the 4 rat anti-CDH6 monoclonal antibodies (clone Nos: rG019, rG055, rG056 and rG061), which had been prepared in Reference Example 1)-7, or rat IgG control (R&D Systems, Inc.) (final concentration: 10 ng/mL). The cells were left standing at 4° C. for 1 hour. The cells were washed twice with PBS supplemented with 5% FBS, and then suspended by the addition of Anti-Rat IgG (whole molecule)-FITC antibody produced in rabbit (Sigma-Aldrich Co. LLC) that had been 50-fold diluted with PBS supplemented with 5% FBS. The cells were left standing at 4° C. for 1 hour. The cells were washed twice with PBS supplemented with 5% FBS, followed by detection using a flow cytometer (FC500; Beckman Coulter, Inc.). The data was analyzed using FlowJo (Tree Star, Inc.). In the histogram of FIG. 1, the abscissa depicts FITC fluorescence intensity indicating the amount of the antibody bound, and the ordinate depicts a cell count. […] The rat IgG control binds to neither of the cells. As a result, it was confirmed that the 4 produced rat anti-CDH6 monoclonal antibodies bind to 293T cells transfected with pcDNA3.1-hCDH6.

binding to human CDH6 [1] | binding to 293T cells transfected with pcDNA3.1-hCDH6 [2] | Molecule
bind specifically and strongly | bind | rG019: rat anti-human CDH6 monoclonal antibody produced by hybridoma rG019; variable regions SEQ ID NO: 10 and 15 (antibody, listed as Rattus norvegicus, V domains shown) VL: DIQMTQSPSLLSASVGDRVTLNCKASQNIYKNLAWYQQKLGEGPKLLIYDANTLQTGIPSRFSGSGSGSDFTLTISSLQPEDVATYFCQQYYSGWAFGGVTNLELKRA VH: QVQLQQSGAELVKPGSSVKISCKASGYTFTRNFMHWIKQQPGNGLEWIGWIYCGDGETEYNQKFNGKATLTADRSSSTAYMELSRLTSEDSAVYFCARGVYGGFAGGYFDFWGQGVMVTVSS
bind specifically and strongly | bind | rG056: rat anti-human CDH6 monoclonal antibody produced by hybridoma rG056; variable regions SEQ ID NO: 30 and 35 (antibody, listed as Rattus norvegicus, V domains shown) VL: DVQMTQSPSSLAASPGESVSISCRATKSIGIYLAWYQQKPGKTFKLLIYSGSTLQSGTPSRFSGSGSGTDFTLTIRSLEPEDFGLYFCQQFYENPFTFGSGTKLEIRRA VH: EVQLQESGPGLVKPSQSLSLTCSVTDYSITTYFWGWIRKFPGNKMEWMGYMSYRGGTSYNPSLKSRISITRDTSKNQFFLQLNSVTTEDTATYYCARCPNYGGHSLVFDYWGQGVMVTVSS
bind specifically and strongly | bind | rG055: rat anti-human CDH6 monoclonal antibody produced by hybridoma rG055; variable regions SEQ ID NO: 20 and 25 (antibody, listed as Rattus norvegicus, V domains shown) VL: DVQMTHSPSYLAASPGESVSISCKTSKNISNYLVWYQQKPGEAYKLLIYSGSTLQSGTPSRFSGSGSGTDFTLTIRSLEPEDFGLYFCQQYYEKPFTFGSGTKLEIKRA VH: EVQLQESGPGLVRPSQSLSLSCSVTDYSITSNYWGWIRRFPGNKMEWMGYITYSGYTSYNPSLQSRISITRDTSKNQFFLQLNSVTAEDTATYYCARSINHGGYSYVVDAWGPGASVTVSS
bind specifically and strongly | bind | rG061: rat anti-human CDH6 monoclonal antibody produced by hybridoma rG061; variable regions SEQ ID NO: 40 and 45 (antibody, listed as Rattus norvegicus, V domains shown) VL: DVQMTQSPSYLAASPGESVSISCKATKSISNYLAWYQQKPGEAYKVLIYSGSTLQSGTPSRFSGSGSGTDFTLTIRSLEPEDFGLYSCQQYYEKPLTFGSGTKLEIKRA VH: EVQLQESGPGLVKPSQSLSLTCSVTGYSITTYYWGWIRKFPGNKMEWMGYISYSGRTSYNPSLKSRMSITRDASKNQFFLQLNSVTTDDTATYYCARSPINHGGYWYFDFWGPGTMVTVSS
